# Test results from patent publication US11384119B2, “Compositions and methods for inhibiting CD279 interactions” (priority 2015, dated 2022).
# Key:
# tumour cell line LL/2 = test: In vivo LL/2 tumour model in C57Bl/6 mice; details: 200 mg/kg IP for 7 days
# Procedure: More particularly, mice strain C57Bl/6 (male, 4-weeks, initial body weight˜20-22 g) were inoculated with tumour cell line LL/2, at S.C. 10^5 per mouse. After 14 days post-implantation, the mice were treated with D-TW or D-TW-Scrambled for 7 days (at 200 mg/kg), via intraperitoneal (IP) injection.
# [1] = biological target: T1, human PD-L1 (PD-1/PD-L1 interaction) (Homo sapiens, UniProt Q9NZQ7); test: Competition ELISA: peptide blocking of recombinant human PD-1 Fc binding to plate-coated human PD-L1 Fc; details: peptide 0.008 μg/ml to 10 μg/ml, human PD-1 Fc 10 ng/ml; FIG. 1
# T1 construct: Fc
# T1 sequence (Q9NZQ7 19-238 limits assumed): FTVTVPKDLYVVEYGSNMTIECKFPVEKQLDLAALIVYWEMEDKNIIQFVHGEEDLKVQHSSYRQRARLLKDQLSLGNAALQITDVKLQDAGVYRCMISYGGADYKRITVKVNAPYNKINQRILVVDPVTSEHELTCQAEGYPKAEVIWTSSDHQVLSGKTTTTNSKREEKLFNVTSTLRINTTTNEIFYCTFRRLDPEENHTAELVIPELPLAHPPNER
# Procedure: The binding of the WT or TF peptide to human PD-L1 was tested via competition ELISA. Varying concentrations of each peptide (0.008 μg/ml to 10 μg/ml) were mixed with a fixed concentration of recombinant human PD-1 Fc (10 ng/ml) and bound to a human PD-L1 Fc coated 96-well Immuno Maxisorp flat bottom plate. Binding was detected via a biotinylated anti-PD-1 antibody, streptavidin-horseradish peroxidase (HRP), and 3,3′,5,5′-Tetramethylbenzidine (TMB) substrate. Absorbance measurements were collected at 450 nm via a plate reader. The absorbance readings were plotted against the test peptide concentration.
# More particularly, in this Example and referring to FIGS. 5A and 5B, WT represents SEQ ID NO:1; TF represents SEQ ID NO:2; ET represents SEQ ID NO:25; YT represents SEQ ID NO:28; and TW represents the reverse sequence of WT with D-amino acids, SEQ ID NO:34 (also referred to herein as “D-TW”). Different combination of such PD-L1 blocking peptides (3 and 10 μM) were mixed with recombinant human PD-1 Fc and bound to a human PD-L1 Fc coated 96-well Immuno Maxisorp flat bottom plate. Binding was detected via a biotinylated anti-PD-1 antibody, streptavidin-horseradish peroxidase (HRP), and 3,3′,5,5′-Tetramethylbenzidine (TMB) substrate. Absorbance measurements were collected at 450 nm via a plate reader. […]
# PD-1/PD-L1 interaction [2] = biological target: T2, PD-1/PD-L1 interaction (Homo sapiens, UniProt Q9NZQ7); test: IL-2 production by activated Jurkat T cells co-cultured with PD-L1-expressed U87 tumor cells (IL-2 ELISA); type: cell-based; parameters: endogenous in cells; host or cells: U87 tumor cells (PD-L1); Jurkat T cells (PD-1); details: for IL-2 concentration: different peptide concentrations, 37° C. for 48 hours, FIGS. 3A-3C; for blocking of PD-1/PD-L1 interaction (summary of the foregoing assay results): summary of FIGS. 1-3, the combination is compared with a single test peptide treatment
# Procedure: In this Example, 5×10^4 Jurkat T cells were activated with […] of PHA and 50 ng/ml of PMA and co-cultured with 3×10^5 PD-L1-expressed U87 tumor cells mixed with different concentrations of WT (FIG. 3A), TF (FIG. 3B), or combined WT and TF (FIG. 3C) peptide at 37° C. for 48 hours. Cell culture supernatants were harvested and IL-2 production from the Jurkat T cells was assessed by IL-2 ELISA. The numbers shown above each bar in FIGS. 3A-3C represent IL-2 concentrations. […] Moreover, as shown in FIGS. 3A-3C, as the concentrations of the test peptides were increased, an increase in IL-2 concentration was observed.
# Target sequence in this assay (Q9NZQ7 19-290): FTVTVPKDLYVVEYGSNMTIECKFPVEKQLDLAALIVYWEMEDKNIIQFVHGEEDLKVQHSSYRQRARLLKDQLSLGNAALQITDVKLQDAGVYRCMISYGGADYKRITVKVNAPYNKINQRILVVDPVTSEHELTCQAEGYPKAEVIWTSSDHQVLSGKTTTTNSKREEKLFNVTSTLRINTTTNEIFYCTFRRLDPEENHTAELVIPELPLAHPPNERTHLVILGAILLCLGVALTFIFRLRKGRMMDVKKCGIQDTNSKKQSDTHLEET
# PD-1/PD-L1 interaction [3] = biological target: T2, PD-1/PD-L1 interaction; test: IL-2 production by PHA/PMA-activated Jurkat T cells co-cultured with recombinant human PD-L1 Fc (IL-2 ELISA); type: cell-based; parameters: Fc; host or cells: Jurkat T cells (PD-1 side); details: 1-10 μg/ml peptide, PD-L1 Fc 8 μg/ml, 37° C. for 48 hours; FIG. 2
# Procedure: 5×10^4 Jurkat T cells were activated with 1 μg/ml of phytohemagglutinin (PHA) and 50 ng/ml of phorbol 12-myristate 13-acetate (PMA) and co-cultured with recombinant human PD-L1 Fc (8 μg/ml) plus 1-10 μg/ml of WT (FIG. 2A), 1-10 μg/ml of TF (FIG. 2B), or 1-10 μg/ml of combined WT and TF (FIG. 2C) peptide at 37° C. for 48 hours. Cell culture supernatant was harvested and interleukin-2 (IL-2) production from Jurkat T cells was assessed by IL-2 ELISA. The numbers shown above each bar in FIG. 2 represent IL-2 concentrations.
# Target sequence in this assay (Q9NZQ7 19-238 limits assumed): as the sequence (Q9NZQ7 19-238 limits assumed) above
Molecule,toxicity to mice (tumour cell line LL/2),percent (%) inhibition of PD-1/PD-L1 interaction [1],IL-2 concentration (PD-1/PD-L1 interaction [2]),blocking of PD-1/PD-L1 interaction (summary of the foregoing assay results) (PD-1/PD-L1 interaction [2]),IL-2 concentration (PD-1/PD-L1 interaction [3])
"CSCC[C@@H](NC(=O)[C@@H](CO)NC(=O)[C@H]1CCCN1C(=O)[C@@H](CO)NC(=O)[C@@H](CC(N)=O)NC(=O)[C@@H](CCC(N)=O)NC(=O)[C@H](N)[C@H](C)O)C(=O)N[C@H](CCCNC(=N)N)C(=O)N[C@H](Cc1ccc(O)cc1)C(=O)N[C@H](Cc1c[nH]c2ccccc12)C(=O)O [D-TW, TQNSPSMRYW]",generally non-toxic,–,–,–,–
TAHPSPSPRSAGQF [TF],–,the percent (%) inhibition increased,yielded an increase in IL-2 concentration,able to block PD-1/PD-L1 interaction,yielded an increase in IL-2 concentration
WYRMSPSNQT [WT],–,the percent (%) inhibition increased,yielded an increase in IL-2 concentration,able to block PD-1/PD-L1 interaction,–
